# Measurements: patent publication US20230322857A1, “RECOMBINANTLY ENGINEERED POLYPEPTIDES CAPABLE OF RECYCLING NONCANONICAL COFACTORS” (The Regents of the University of California, priority 2022, published 2023)
# “Also recorded” adds a separate entry of the source.
# What was measured:
# [1] = Comparison of PTDH and GDH Triple redox cofactor cycling systems; assay type: biochemical
# Description: Comparison of PTDH and GDH Triple Redox Cofactor Cycling Systems. In cycling reactions focused on higher conversion and productivity, see FIG. 10C, the concentration of cofactor cycling protein (TS-PTDH or GDH Triple) was increased relative to the TTN determination experiments. Reactions were performed at 30° C. without shaking in 1 mL volumes in 2 mL glass vials secured with a PTFE-lined screw cap. Sampling and GC-FID analysis were performed as described in the TTN method section.
# Reactions utilizing TS-PTDH LY-13 contained 100 mM MOPS at pH 7.5, 100 mM sodium phosphite, 33 mM KIP, and 18.8 μM XenA. Reactions utilizing GDH Triple contained 200 mM potassium phosphate at pH 7.5, 300 mM D-glucose, 1 M NaCl, 33 mM KIP, and 18.8 μM XenA. The NMN^+ concentration in each reaction was varied at 0, 0.05, 0.1, 0.5, or 5 mM. The reactions were initiated by spiking TS-PTDH LY-13 or GDH Triple to a final concentration of 10 μM.
# E. coli SHuffle strain = test: Recapitulation of growth restoration with TS-PTDH variants in SHuffle strain; assay type: cell-based, Escherichia coli; details: spotted onto agar selection plates
# Description: Selection of TS-PTDH Library. A total of 50 μL pre-made SHuffle/pLZ311 or SHuffle/pLZ312 electro-competent cells were transformed with 2 μL TS-PTDH A155N-E175-A176-L208 NNK library DNA (pLZ316) via electroporation as described above. After rescue in SOC media for 1 h, cultures were combined in 10 mL 2×YT with 10 g/L glucose, 0.5% arabinose, kanamycin and ampicillin. 0.2, or 1 μL of culture was immediately taken from the culture and plated on an 2×YT agar plates with kanamycin and ampicillin. The plate was incubated at 37° C. overnight, and the number of colonies formed was counted to estimate the library size. The liquid cultures were incubated at 37° C. with shaking for 10 h. Cells (1 mL) were washed 3 times and re-suspended in M9 Buffer. Targeted serial dilutions of cells were prepared in M9 buffer and 5 μL aliquots were dispensed in series on an agar plate of M9 selection media containing 0.5 mM diamide, 5 or 1 g/L yeast extract, 10 g/L glucose, 0.5% arabinose, 0.5 mM IPTG, 10 g/L sodium phosphite, kanamycin, ampicillin, and 5 mM NMN^+. Selection plates were incubated at 37° C., and photographs were taken to document growth progress. The independent transformants sampled was calculated as 2.4×10^6 and 2.5×10^6 colonies when plated on 5 and 1 g/L yeast extract, respectively. TS-PTDH and the template of the library, TS-PTDH A155N, were cultured in the same conditions as controls. The colonies were numbered by the order of appearance. The selected cells were re-streaked on fresh agar plate with identical media and incubated until single colonies formed on the plate. Variants that cannot forma single colony may be false positives. After extracting the plasmids from each re-streaked colony, the chosen TS-PTDH variants were amplified and moved into the pQElac vector containing a N-terminal 6×His tag for protein purification and characterization. […] 2 μL of a serial dilution of cells were deposited onto a growth selection plate and grown at 37° C.
molecule,measurement,setting,value
"LY-13: phosphite dehydrogenase variant with A155N, E175A, A176F (SEQ ID NO: 6) (protein) MLPKLVITHRVHEEILQLLAPHCELITNQTDSTLTREEILRRCRDAQAMMAFMPDRVDADFLQACPELRVIGCALKGFDNFDVDACTARGVWLTFVPDLLTVPTAELAIGLAVGLGRHLRAADAFVRSGKFRGWQPRFYGTGLDNATVGFLGMGNIGLAMADRLQGWGATLQYHAFKALDTQTEQRLGLRQVACSELFASSDFILLALPLNADTLHLVNAELLALVRPGALLVNPCRGSVVDEAAVLAALERGQLGGYAADVFEMEDWARADRPQQIDPALLAHPNTLFTPHIGSAVRAVRLEIERCAAQNILQALAGERPINAVNRLPKANPAAD",time to complete conversion of the 33 mM KIP pool,"[1]; 5 mM NMN^+ supplied, 10 μM cycling enzyme, 18.8 μM XenA",12 h
same,biotransformation performance compared to GDH Triple at low NMN^+,[1]; NMN^+ supplementation 1 mM and lower,higher biotransformation rates and final titers; also recorded: more efficient utilization of the NMN^+ pool; also recorded: outperform GDH Triple
same,"growth restoration, co-expression with NMNH-specific Gor Ortho",E. coli SHuffle strain,markedly improved growth restoration
same,"growth restoration, co-expression with NMNH-specific Gor Ortho",E. coli SHuffle strain; listed as TS-PTDH LY-13,improved growth compared to TS-PTDH A155N
